This note sets out measurements from patent EP1188448A2.

This test concerns the target FGF receptors. The test is described as follows: cell-based or functional assay.

In turn, “bFGF-SAP fusion protein (FGF-Ala-Met-SAP), wild type” yielded an ID50, cytotoxicity on SK-Mel-28 cells (72 h, MTT) of 0.6 nM; an ID50, inhibition of proliferation of serum stimulated rabbit keratocytes (3 h) of 1 to 10 nM; an ID50, inhibition of rabbit keratocyte proliferation (48 h) of 0.2 nM.
Substance “wild type bFGF-SAP chemical conjugate (heterogeneous FGF-SAP) (from UniProt P20656 25-277)” showed an ED50, cytotoxicity on SK-MEL-28 cells of 8 ng/mL; an ID50, cytotoxicity on SK-Mel-28 cells (72 h, MTT) of 0.3 nM; an ID50, inhibition of proliferation of serum stimulated rabbit keratocytes (3 h) of 1 to 10 nM; an ID50, inhibition of rabbit keratocyte proliferation (48 h) of 0.1 nM.
